{
  "source": "patent CN115703833A",
  "about": "(BOAOXIN BIOTECHNOLOGY NANJING CO LTD, dated 2023)",
  "binders": {"B1": {"name": "本发明的单克隆抗体1D5 (小鼠抗CD47单克隆抗体) (antibody, V domains shown)", "VH": "EVQLQQSGAELVRSGASVKLSCTASGFNIKDYYMSWVRQRPEQGLEWIGWIDPKNGDTAYDPKFQGKATMTADTSSNTAYLQFSSLTSEDTADYYCNAGGRGGFAYWGQGTLVTVSA", "VL": "DVLMTQTPLSLPVSLGDQASISCRSNQSIVHSNGYTYLEWYLQKPGQSPKLLIYKVSNRFSGVPDRFSGSGSGTDFTLRISRVEAEDLGVYYCFQGSHVPRTFGGGTKLEIK", "notes": "Tested as a purified mouse monoclonal antibody from a hybridoma"}},
  "key": {"[1]": {"biological_target": "T1, 人CD47 (表面过表达人CD47的293F细胞) (human, UniProt Q08722 19-323)", "T1 construct": "whole, on cells; also called 表面过表达人CD47的稳定细胞系293F", "T1 sequence (Q08722 19-323)": "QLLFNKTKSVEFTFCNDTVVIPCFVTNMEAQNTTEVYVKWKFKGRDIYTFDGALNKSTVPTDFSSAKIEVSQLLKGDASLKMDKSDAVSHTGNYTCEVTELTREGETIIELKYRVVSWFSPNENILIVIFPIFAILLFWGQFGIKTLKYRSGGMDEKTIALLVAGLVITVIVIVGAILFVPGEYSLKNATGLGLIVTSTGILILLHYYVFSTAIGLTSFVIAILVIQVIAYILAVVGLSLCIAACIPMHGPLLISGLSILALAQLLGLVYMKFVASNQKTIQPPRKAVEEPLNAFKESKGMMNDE", "test": "flow cytometry on 293F cells overexpressing human CD47"}, "[2]": {"biological_target": "T2, 重组人CD47-his蛋白 (ACRO biosystems, cat#CD7-H5227, MW 15.6 kDa) (human, UniProt Q08722 19-139, biotin-labelled in the ELISAs (position not given); unlabelled in Biacore)", "T2 construct": "also called 人CD47蛋白; 人CD47-生物素; not shown: his tag", "T2 sequence (Q08722 19-139 limits assumed)": "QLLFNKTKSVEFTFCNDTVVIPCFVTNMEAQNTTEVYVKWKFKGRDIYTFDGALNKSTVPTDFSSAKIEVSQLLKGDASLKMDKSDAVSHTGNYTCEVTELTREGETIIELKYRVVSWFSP", "test": "Biacore T200 SPR; antibody captured by goat anti-mouse IgG on a CM5 chip, CD47-his as analyte"}},
  "data": [
    {"binder": "B1", "values": [
      {"measurement": "binding result", "setting": "[1]", "value": "binds"},
      {"measurement": "binding result", "setting": "[2]", "value": "binds"}
    ]}
  ]
}
